Laboratory results published in US12534534 (F STAR BETA, dated 2026).
Where a chain is given by its changes, count along the chain named. In names and notes the source's numbering stands.

T1: DR6-Fc (human, UniProt O75509 42-349, limits assumed)
T1 construct: bought; also called human DR6 (R&D Systems, 144-DR-100); not shown: Fc part of the bought fusion
T1 sequence (looked up): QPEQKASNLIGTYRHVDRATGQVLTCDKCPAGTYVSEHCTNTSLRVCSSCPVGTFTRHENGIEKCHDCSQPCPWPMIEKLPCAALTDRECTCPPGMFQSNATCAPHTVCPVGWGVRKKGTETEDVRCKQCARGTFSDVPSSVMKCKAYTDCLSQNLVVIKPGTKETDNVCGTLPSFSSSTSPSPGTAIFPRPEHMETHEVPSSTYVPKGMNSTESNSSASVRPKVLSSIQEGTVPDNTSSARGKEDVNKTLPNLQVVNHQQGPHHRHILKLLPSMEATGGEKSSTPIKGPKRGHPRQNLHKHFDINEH

T2: GITR-hFc-Avi (human, UniProt Q9Y5U5 26-161)
T2 construct: in-house produced; not shown: hFc and Avi part
T2 sequence: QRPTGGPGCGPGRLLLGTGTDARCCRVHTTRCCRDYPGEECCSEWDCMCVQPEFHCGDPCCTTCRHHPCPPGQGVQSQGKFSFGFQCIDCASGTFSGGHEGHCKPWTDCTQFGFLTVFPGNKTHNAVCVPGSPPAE

T3: NGFR-Fc (human, UniProt P08138 29-250)
T3 construct: bought; also called NGFR (R&D Systems, 367-NR-050/CF); not shown: Fc part of the bought fusion
T3 sequence (looked up): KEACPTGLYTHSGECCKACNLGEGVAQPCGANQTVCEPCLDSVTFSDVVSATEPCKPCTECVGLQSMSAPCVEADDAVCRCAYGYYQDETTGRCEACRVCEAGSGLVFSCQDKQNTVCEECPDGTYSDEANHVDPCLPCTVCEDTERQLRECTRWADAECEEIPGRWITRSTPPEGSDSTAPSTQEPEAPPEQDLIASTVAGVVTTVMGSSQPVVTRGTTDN

T4: TNFRSF1A-Fc (human, UniProt P19438 30-211, limits assumed)
T4 construct: bought; also called TNFRSF1A (R&D Systems, 372-RI-050/CF); not shown: Fc part of the bought fusion
T4 sequence (looked up): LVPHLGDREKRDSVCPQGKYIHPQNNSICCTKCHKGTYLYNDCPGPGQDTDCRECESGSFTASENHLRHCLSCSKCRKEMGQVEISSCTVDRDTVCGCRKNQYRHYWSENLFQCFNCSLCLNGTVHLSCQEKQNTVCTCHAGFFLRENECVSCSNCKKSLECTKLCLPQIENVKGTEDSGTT

T5: TNFRSF1B-Fc (human, UniProt P20333 23-257)
T5 construct: bought; also called TNFRSF1B (R&D Systems, 726-R2-050); not shown: Fc part of the bought fusion
T5 sequence (looked up): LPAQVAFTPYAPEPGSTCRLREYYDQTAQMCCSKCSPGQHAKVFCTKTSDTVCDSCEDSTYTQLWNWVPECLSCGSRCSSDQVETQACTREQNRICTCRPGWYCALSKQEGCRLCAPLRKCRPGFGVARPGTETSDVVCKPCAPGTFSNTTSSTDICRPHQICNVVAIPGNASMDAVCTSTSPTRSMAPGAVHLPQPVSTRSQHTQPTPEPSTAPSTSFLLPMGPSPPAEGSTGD

B1: FS20-22-49AA/FS30-10-3 (bispecific antibody, human IgG1, kappa, L234A L235A, V domains shown)
VH: EVQLLESGGGLVQPGGSLRLSCAASGFTFSSYDMSWVRQAPGKGLEWVSDIDPTGSKTDYADSVKGRFTISRDNSKNTLYLQMNSLRAEDTAVYYCARDLNVYGFDYWGQGTLVTVSS
VL: EIVLTQSPGTLSLSPGERATLSCRASQSVSSSYLAWYQQKPGQAPRLLIYGASSRATGIPDRFSGSGSGTDFTLTISRLEPEDFAVYYCQQSYSYPVTFGQGTKVEIKR
notes: M97 (Kabat) to N against FS30-10; also called FS30-10-3 in mAb^2 format
B2: FS20-22-49AA/FS30-10-12 (bispecific antibody, human IgG1, kappa, L234A L235A, V domains shown)
VH: B1 VH with N101T
VL: B1 VL
notes: M97 (Kabat) to T against FS30-10; also called FS30-10-12 in mAb^2 format
B3: FS20-22-49AA/FS30-10-16 (bispecific antibody, human IgG1, kappa, L234A L235A, V domains shown)
VH: B1 VH with N101L
VL: B1 VL
notes: M97 (Kabat) to L against FS30-10; also called FS30-10-16 in mAb^2 format
B4: FS20-22-49AA/FS30-35-14 (bispecific antibody, human IgG1, kappa, L234A L235A, V domains shown)
VH: EVQLLESGGGLVQPGGSLRLSCAASGFTFSAYNIHWVRQAPGKGLEWVSDISPYGGATNYADSVKGRFTISRDNSKNTLYLQMNSLRAEDTAVYYCARNLYELSAYSYGADYWGQGTLVTVSS
VL: EIVLTQSPGTLSLSPGERATLSCRASQSVSSSYLAWYQQKPGQAPRLLIYGASSRATGIPDRFSGSGSGTDFTLTISRLEPEDFAVYYCQQYYYSSPITFGQGTKVEIKR
notes: M100F (Kabat) to A against FS30-35; also called FS30-35-14 in mAb^2 format
B5: FS20-22-49AA/FS30-5-37 (bispecific antibody, human IgG1, kappa, L234A L235A, V domains shown)
VH: EVQLLESGGGLVQPGGSLRLNCAASGFTFSSYAMSWVRQAPGKGLEWVSAISGSGGSTYYADSVKGRFTISRDNSKNTLYLQMNSLRAEDTAVYYCARSYDKYWGSSIYSGLDYWGQGTLVTVSS
VL: B4 VL with Y94S, S95Y, S96Y, I98V
notes: M100D to I and M100H to L against FS30-5; also called FS30-5-37 in mAb^2 format

Each binder was assayed against T6, human CD137 on DO11.10-hCD137 cells (human, UniProt Q07011 24-255) (assay: cell-based or functional assay).
In the case of B1, the “DO11.10-hCD137 T cell activation assay EC50 (nM), crosslinked” value is reported as 4.8 nM.
B2 was tested, and the “DO11.10-hCD137 T cell activation assay EC50 (nM), crosslinked” value was 4.5 nM.
B3 was tested, and the “DO11.10-hCD137 T cell activation assay EC50 (nM), crosslinked” value was 3.7 nM.
For B4, the “DO11.10-hCD137 T cell activation assay EC50 (nM), crosslinked” value was 6.3 nM.

Target: T6, human CD137 on DO11.10-hCD137 cells
Test: cell-based or functional assay
Remark: another data set of the same source
For B5, the “EC50 (nM), mIL-2 release, DO11.10-hCD137 T cell assay, crosslinked (mean of n = 2)” value (shortened to “EC50 (nM), mIL-2 release”) was 13.4 nM and the “Emax (mIL-2 pg/ml), DO11.10-hCD137 T cell assay, crosslinked” value (“Emax (mIL-2 pg/ml)” below) was 18100 pg/mL.
In the case of B1, the “EC50 (nM), mIL-2 release” value is reported as 6.1 nM and the “Emax (mIL-2 pg/ml)” value is reported as 17000 pg/mL.
In the case of B2, the “EC50 (nM), mIL-2 release” value is reported as 9.5 nM and the “Emax (mIL-2 pg/ml)” value is reported as 17200 pg/mL.
In the case of B3, the “EC50 (nM), mIL-2 release” value is reported as 4.7 nM and the “Emax (mIL-2 pg/ml)” value is reported as 16300 pg/mL.
For B4, the “EC50 (nM), mIL-2 release” value was 5.1 nM and the “Emax (mIL-2 pg/ml)” value was 19800 pg/mL.

These binders were tested against T7, hCD137-mFc-Avi (human, UniProt Q07011 24-186) (assay: cell-based, 100 nM hCD137-mFc-Avi with 200 nM antibody, competitor human CD137L on DO11.10 cells, GMFI normalised to G1/11D4 = 0 and G1/MOR7480.1 = 100; mean of n=2).
T7 construct: dimer; also called human CD137-mFc-Avi; human CD137-mFc
Description: The cells were washed once in PBS and 100 μl/well of secondary antibody (anti-mouse Fc-488 antibody, Jackson Immuno Research, 115-546-008) diluted 1:1000 in PBS containing 2% BSA was then added and incubated for 30 mins at 4° C. in the dark. The cells were washed once with PBS and resuspended in 100 μl of PBS containing DAPI (Biotium, 40043) at 1 μg/ml. The cells were analysed using a Canto II flow cytometer (BD Bioscience). Dead cells were excluded and the fluorescence in the FITC channel (488 nm/530/30) was measured. […] The data was analysed using a one-way ANOVA test and Tukey's multiple comparisons test using GraphPad Prism.
For B5, the “% CD137 ligand blocking activity” value was 105%.
With B1 the “% CD137 ligand blocking activity” value was 65%.
With B2 the “% CD137 ligand blocking activity” value was 46%.
In the case of B3, the “% CD137 ligand blocking activity” value is reported as 76%.

The binders below were run against T1, DR6-Fc (assay: SPR, antigen immobilised on CM5 chip).
B5: no binding (tested: 1 µM (protocol of Example 3.1)).
B1: no binding (tested: 1 µM (protocol of Example 3.1)).
B2: no binding (tested: 1 µM (protocol of Example 3.1)).
B3: no binding (tested: 1 µM (protocol of Example 3.1)).
B4: no binding (tested: 1 µM (protocol of Example 3.1)).

What follows are binders tested against T2, GITR-hFc-Avi (assay: SPR, antigen immobilised on CM5 chip).
B5: no binding (tested: 1 µM (protocol of Example 3.1)).
B1: no binding (tested: 1 µM (protocol of Example 3.1)).
B2: no binding (tested: 1 µM (protocol of Example 3.1)).
B3: no binding (tested: 1 µM (protocol of Example 3.1)).
B4: no binding (tested: 1 µM (protocol of Example 3.1)).

These binders were tested against T3, NGFR-Fc (assay: SPR, antigen immobilised on CM5 chip).
B5: no binding (tested: 1 µM (protocol of Example 3.1)).
B1: no binding (tested: 1 µM (protocol of Example 3.1)).
B2: no binding (tested: 1 µM (protocol of Example 3.1)).
B3: no binding (tested: 1 µM (protocol of Example 3.1)).
B4: no binding (tested: 1 µM (protocol of Example 3.1)).

The binders below were run against T4, TNFRSF1A-Fc (assay: SPR, antigen immobilised on CM5 chip).
B5: no binding (tested: 1 µM (protocol of Example 3.1)).
B1: no binding (tested: 1 µM (protocol of Example 3.1)).
B2: no binding (tested: 1 µM (protocol of Example 3.1)).
B3: no binding (tested: 1 µM (protocol of Example 3.1)).
B4: no binding (tested: 1 µM (protocol of Example 3.1)).

Each binder was assayed against T8, CD40-mFc (human, UniProt P25942 21-193) (assay: SPR, antigen immobilised on CM5 chip).
T8 construct: in-house produced; not shown: mFc part
B5: no binding (tested: 1 µM (protocol of Example 3.1)).
B1: no binding (tested: 1 µM (protocol of Example 3.1)).
B2: no binding (tested: 1 µM (protocol of Example 3.1)).
B3: no binding (tested: 1 µM (protocol of Example 3.1)).
B4: no binding (tested: 1 µM (protocol of Example 3.1)).

The binders below were run against T5, TNFRSF1B-Fc (assay: SPR, antigen immobilised on CM5 chip).
B5: no binding (tested: 1 µM (protocol of Example 3.1)).
B1: no binding (tested: 1 µM (protocol of Example 3.1)).
B2: no binding (tested: 1 µM (protocol of Example 3.1)).
B3: no binding (tested: 1 µM (protocol of Example 3.1)).
B4: no binding (tested: 1 µM (protocol of Example 3.1)).
